Sequences and labels used below:
B1: target 1 MT 5'PFS AAG 3'PFS ACG (mixed)
RNA 1: CACCCGUGCAAAAAUGCAGGGGUCUAAAACUGAGCGGAUAACCUCUCUAUGG
RNA 2: GGGAAUGGAUCCACAUCUACGAAUUCAAGCCAUAGAGAGGUUAUCCGCUCAACGAGAUCGGAAGAGCACACGU
B2: target 1 MT 5'PFS GUU 3'PFS ACG (mixed)
RNA 1: CACCCGUGCAAAAAUGCAGGGGUCUAAAACUGAGCGGAUAACCUCUCUAUGG
RNA 2: GGGAAUGGAUCCACAUCUACGAAUUCGUUCCAUAGAGAGGUUAUCCGCUCAACGAGAUCGGAAGAGCACACGU
B3: target 1 MT 5'PFS GAA 3'PFS UCC (mixed)
RNA 1: CACCCGUGCAAAAAUGCAGGGGUCUAAAACUGAGCGGAUAACCUCUCUAUGG
RNA 2: GGGAAUGGAUCCACAUCUACGAAUUCGAACCAUAGAGAGGUUAUCCGCUCAUCCAGAUCGGAAGAGCACACGU
B4: target 1 MT 5'PFS GCG 3'PFS UCG (mixed)
RNA 1: CACCCGUGCAAAAAUGCAGGGGUCUAAAACUGAGCGGAUAACCUCUCUAUGG
RNA 2: GGGAAUGGAUCCACAUCUACGAAUUCGCGCCAUAGAGAGGUUAUCCGCUCAUCGAGAUCGGAAGAGCACACGU
B5: target 1 MT 5'PFS CUA 3'PFS CAG (mixed)
RNA 1: CACCCGUGCAAAAAUGCAGGGGUCUAAAACUGAGCGGAUAACCUCUCUAUGG
RNA 2: GGGAAUGGAUCCACAUCUACGAAUUCCUACCAUAGAGAGGUUAUCCGCUCACAGAGAUCGGAAGAGCACACGU
B6: target 1 MT 5'PFS AUG 3'PFS UCC (mixed)
RNA 1: CACCCGUGCAAAAAUGCAGGGGUCUAAAACUGAGCGGAUAACCUCUCUAUGG
RNA 2: GGGAAUGGAUCCACAUCUACGAAUUCAUGCCAUAGAGAGGUUAUCCGCUCAUCCAGAUCGGAAGAGCACACGU
B7: target 1 insC 3' of 20,insC 3' of 15 (mixed)
RNA 1: CACCCGUGCAAAAAUGCAGGGGUCUAAAACUGAGCGGAUAACCUCUCUAUGG
RNA 2: GGGAAUGGAUCCACAUCUACGAAUUCGUACCACUAGAGCAGGUUAUCCGCUCACCGAGAUCGGAAGAGCACACGU
B8: target 1 MT 5'PFS GUG 3'PFS AUC (mixed)
RNA 1: CACCCGUGCAAAAAUGCAGGGGUCUAAAACUGAGCGGAUAACCUCUCUAUGG
RNA 2: GGGAAUGGAUCCACAUCUACGAAUUCGUGCCAUAGAGAGGUUAUCCGCUCAAUCAGAUCGGAAGAGCACACGU
B9: target 1 MT 5'PFS GAA 3'PFS UCA (mixed)
RNA 1: CACCCGUGCAAAAAUGCAGGGGUCUAAAACUGAGCGGAUAACCUCUCUAUGG
RNA 2: GGGAAUGGAUCCACAUCUACGAAUUCGAACCAUAGAGAGGUUAUCCGCUCAUCAAGAUCGGAAGAGCACACGU
B10: target 1 insA 3' of 22,insU 3' of 4 (mixed)
RNA 1: CACCCGUGCAAAAAUGCAGGGGUCUAAAACUGAGCGGAUAACCUCUCUAUGG
RNA 2: GGGAAUGGAUCCACAUCUACGAAUUCGUACACAUAGAGAGGUUAUCCGCUUCACCGAGAUCGGAAGAGCACACGU
B11: target 1 MT 5'PFS GUU 3'PFS UAU (mixed)
RNA 1: CACCCGUGCAAAAAUGCAGGGGUCUAAAACUGAGCGGAUAACCUCUCUAUGG
RNA 2: GGGAAUGGAUCCACAUCUACGAAUUCGUUCCAUAGAGAGGUUAUCCGCUCAUAUAGAUCGGAAGAGCACACGU
B12: target 1 MT 5'PFS GUU 3'PFS UAA (mixed)
RNA 1: CACCCGUGCAAAAAUGCAGGGGUCUAAAACUGAGCGGAUAACCUCUCUAUGG
RNA 2: GGGAAUGGAUCCACAUCUACGAAUUCGUUCCAUAGAGAGGUUAUCCGCUCAUAAAGAUCGGAAGAGCACACGU
B13: target 1 MT 5'PFS GUU 3'PFS ACA (mixed)
RNA 1: CACCCGUGCAAAAAUGCAGGGGUCUAAAACUGAGCGGAUAACCUCUCUAUGG
RNA 2: GGGAAUGGAUCCACAUCUACGAAUUCGUUCCAUAGAGAGGUUAUCCGCUCAACAAGAUCGGAAGAGCACACGU
B14: target 1 MT 5'PFS UAG 3'PFS CCC (mixed)
RNA 1: CACCCGUGCAAAAAUGCAGGGGUCUAAAACUGAGCGGAUAACCUCUCUAUGG
RNA 2: GGGAAUGGAUCCACAUCUACGAAUUCUAGCCAUAGAGAGGUUAUCCGCUCACCCAGAUCGGAAGAGCACACGU
B15: target 1 MT 5'PFS GAA 3'PFS UCU (mixed)
RNA 1: CACCCGUGCAAAAAUGCAGGGGUCUAAAACUGAGCGGAUAACCUCUCUAUGG
RNA 2: GGGAAUGGAUCCACAUCUACGAAUUCGAACCAUAGAGAGGUUAUCCGCUCAUCUAGAUCGGAAGAGCACACGU
B16: target 1 MT 5'PFS UCA 3'PFS CCU (mixed)
RNA 1: CACCCGUGCAAAAAUGCAGGGGUCUAAAACUGAGCGGAUAACCUCUCUAUGG
RNA 2: GGGAAUGGAUCCACAUCUACGAAUUCUCACCAUAGAGAGGUUAUCCGCUCACCUAGAUCGGAAGAGCACACGU
B17: target 1 MT 5'PFS GAA 3'PFS UCG (mixed)
RNA 1: CACCCGUGCAAAAAUGCAGGGGUCUAAAACUGAGCGGAUAACCUCUCUAUGG
RNA 2: GGGAAUGGAUCCACAUCUACGAAUUCGAACCAUAGAGAGGUUAUCCGCUCAUCGAGAUCGGAAGAGCACACGU
B18: target 1 MT 5'PFS GCG 3'PFS UCU (mixed)
RNA 1: CACCCGUGCAAAAAUGCAGGGGUCUAAAACUGAGCGGAUAACCUCUCUAUGG
RNA 2: GGGAAUGGAUCCACAUCUACGAAUUCGCGCCAUAGAGAGGUUAUCCGCUCAUCUAGAUCGGAAGAGCACACGU
B19: target 1 MT 5'PFS CCG 3'PFS CGG (mixed)
RNA 1: CACCCGUGCAAAAAUGCAGGGGUCUAAAACUGAGCGGAUAACCUCUCUAUGG
RNA 2: GGGAAUGGAUCCACAUCUACGAAUUCCCGCCAUAGAGAGGUUAUCCGCUCACGGAGAUCGGAAGAGCACACGU
B20: target 1 MT 5'PFS GUU 3'PFS UAC (mixed)
RNA 1: CACCCGUGCAAAAAUGCAGGGGUCUAAAACUGAGCGGAUAACCUCUCUAUGG
RNA 2: GGGAAUGGAUCCACAUCUACGAAUUCGUUCCAUAGAGAGGUUAUCCGCUCAUACAGAUCGGAAGAGCACACGU
B21: target 1 MT 5'PFS GUG 3'PFS AUA (mixed)
RNA 1: CACCCGUGCAAAAAUGCAGGGGUCUAAAACUGAGCGGAUAACCUCUCUAUGG
RNA 2: GGGAAUGGAUCCACAUCUACGAAUUCGUGCCAUAGAGAGGUUAUCCGCUCAAUAAGAUCGGAAGAGCACACGU
B22: target 1 A1U,G12U (mixed)
RNA 1: CACCCGUGCAAAAAUGCAGGGGUCUAAAACUGAGCGGAUAACCUCUCUAUGG
RNA 2: GGGAAUGGAUCCACAUCUACGAAUUCGUACCAUAGAGAGUUUAUCCGCUCUCCGAGAUCGGAAGAGCACACGU
B23: target 1 MT 5'PFS ACU 3'PFS UCU (mixed)
RNA 1: CACCCGUGCAAAAAUGCAGGGGUCUAAAACUGAGCGGAUAACCUCUCUAUGG
RNA 2: GGGAAUGGAUCCACAUCUACGAAUUCACUCCAUAGAGAGGUUAUCCGCUCAUCUAGAUCGGAAGAGCACACGU
B24: target 1 MT 5'PFS GCG 3'PFS UCC (mixed)
RNA 1: CACCCGUGCAAAAAUGCAGGGGUCUAAAACUGAGCGGAUAACCUCUCUAUGG
RNA 2: GGGAAUGGAUCCACAUCUACGAAUUCGCGCCAUAGAGAGGUUAUCCGCUCAUCCAGAUCGGAAGAGCACACGU
B25: target 1 MT 5'PFS GCG 3'PFS UCA (mixed)
RNA 1: CACCCGUGCAAAAAUGCAGGGGUCUAAAACUGAGCGGAUAACCUCUCUAUGG
RNA 2: GGGAAUGGAUCCACAUCUACGAAUUCGCGCCAUAGAGAGGUUAUCCGCUCAUCAAGAUCGGAAGAGCACACGU
B26: target 1 MT 5'PFS GUU 3'PFS UAG (mixed)
RNA 1: CACCCGUGCAAAAAUGCAGGGGUCUAAAACUGAGCGGAUAACCUCUCUAUGG
RNA 2: GGGAAUGGAUCCACAUCUACGAAUUCGUUCCAUAGAGAGGUUAUCCGCUCAUAGAGAUCGGAAGAGCACACGU
B27: target 1 MT 5'PFS UAG 3'PFS CCG (mixed)
RNA 1: CACCCGUGCAAAAAUGCAGGGGUCUAAAACUGAGCGGAUAACCUCUCUAUGG
RNA 2: GGGAAUGGAUCCACAUCUACGAAUUCUAGCCAUAGAGAGGUUAUCCGCUCACCGAGAUCGGAAGAGCACACGU

This data set addresses T1, EsCas13d, nuclease-dead (Eubacterium siraeum, UniProt B0MS50, R295A;H300A;R849A;H854A).
T1 sequence: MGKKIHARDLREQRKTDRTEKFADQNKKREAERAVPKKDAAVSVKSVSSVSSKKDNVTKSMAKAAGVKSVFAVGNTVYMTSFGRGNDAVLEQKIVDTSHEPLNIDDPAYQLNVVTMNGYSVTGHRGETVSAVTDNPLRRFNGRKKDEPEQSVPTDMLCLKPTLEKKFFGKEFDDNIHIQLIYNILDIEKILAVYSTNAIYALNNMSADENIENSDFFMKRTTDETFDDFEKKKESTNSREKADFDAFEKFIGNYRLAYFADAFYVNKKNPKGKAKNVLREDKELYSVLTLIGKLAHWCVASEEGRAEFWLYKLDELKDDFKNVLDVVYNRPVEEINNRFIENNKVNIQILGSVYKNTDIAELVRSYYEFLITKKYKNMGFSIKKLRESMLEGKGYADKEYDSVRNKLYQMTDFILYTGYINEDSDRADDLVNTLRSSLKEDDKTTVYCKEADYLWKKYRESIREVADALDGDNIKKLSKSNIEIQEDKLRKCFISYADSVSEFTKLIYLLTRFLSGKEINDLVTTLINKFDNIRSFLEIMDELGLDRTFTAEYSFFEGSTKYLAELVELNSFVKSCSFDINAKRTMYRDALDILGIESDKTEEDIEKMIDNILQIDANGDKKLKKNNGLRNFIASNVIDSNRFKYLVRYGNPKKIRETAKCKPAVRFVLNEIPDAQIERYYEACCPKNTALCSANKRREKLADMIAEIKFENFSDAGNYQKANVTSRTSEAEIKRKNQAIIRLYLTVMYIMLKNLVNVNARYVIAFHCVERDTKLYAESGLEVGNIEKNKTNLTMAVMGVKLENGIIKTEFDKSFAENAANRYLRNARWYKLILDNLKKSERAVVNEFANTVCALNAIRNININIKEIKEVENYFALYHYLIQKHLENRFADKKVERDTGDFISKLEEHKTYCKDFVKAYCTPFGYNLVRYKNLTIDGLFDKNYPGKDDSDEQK
The data set is described as follows: crRNA (strand 1, pre-loaded); Mg2+; 40 mM Tris-HCl pH 7.5, 150 mM NaCl, 6 mM MgCl2, 1 mM DTT, 0.1% Tween-20, 0.2 mg/ml BSA; 25 C; 10 min per concentration, then washed. As to conditions: tags: His6-TwinStrep-SUMO cleaved; N-terminal SNAP kept (SNAP-Surface 488); label: 3' end held by stalled T7 RNA polymerase.
In turn, B1 gave a Kd of 15.5 ± 4 nM. Then B2, with 33 ± 6.5 nM; and B3, with 27 ± 7 nM. Then B4, with 12.8 ± 2.6 nM. Then B5, with about 9.5 nM. B6 yielded a Kd of 20 ± 8.5 nM. The molecule B7 came in with a Kd of 10.1 ± 0.6 nM. Against the preceding molecule, the Kd is about 2-fold lower. In turn, B8 displayed a Kd of 19.9 ± 2.4 nM. This Kd is about 2-fold higher than that of the molecule before. With B9 the figure was 29 ± 8 nM. With B10 the figure was 11.3 ± 0.7 nM; with B11, 16.9 ± 2.4 nM. With B12, the Kd came out at 20.9 ± 3.75 nM.

Take B13: the Kd came to 26.5 ± 9.5 nM. With B14 the figure was about 56 nM. With B15 the figure was 25 ± 5 nM; with B16, 27.5 ± 9.5 nM. Then B17, with 39.5 ± 18 nM; and B18, with 13 ± 2.45 nM. Consider B19, for which the affinity, expressed as Kd, was 19 ± 5.5 nM.

The molecule B20 registered a Kd of 14.3 ± 2.8 nM. Then B21, with 18.2 ± 1.25 nM; and B22, with 14.1 ± 1.8 nM. For the molecule B23, the Kd was about 52 nM. In turn, B24 gave a Kd of 19 ± 4 nM. Take B25: the Kd stood at 17.7 ± 4.45 nM. Then B26, with 17.4 ± 2.25 nM. With B27 the figure was 22 ± 5.15 nM.

For the origin of these results see publication PMC10786891, “Massively parallel profiling of RNA-targeting CRISPR-Cas13d”.
